Measured values: the RNAGym collection of RNA variant scans (doi:10.1073/pnas.2313332121)

B1: TPR t1 (parent)
chain: GACCAAUCUGCCCUCAGAGCUCGAGAACAUCUUCGGAUGCAGAGGAGGCAGGCUUCGGUGGCGCGAUAGCGCCAACGUCCUCAACCUCCAAUGCAUCCCACCACAUGAUGAUGCCUGAAGAGCCUUGGUUUUUUG

Variants of: B1
Test: polymerase ribozyme fitness, log enrichment relative to wild type (log ratio); higher = more active; in vitro selection for triplet polymerase activity
Outline: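 Fitness measures genotype enrichment against wild-type enrichment on a logarithmic scale, with inverse-variance-weighted averaging of replicates. The logarithm is base 2, and genotypes were kept only with ≥10 input reads and ≥1 read per output in Illumina sequencing. The sequenced libraries came from one triplicate in vitro selection round, including frozen incubation at −7 °C, of PCR-built, transcribed mutant libraries of each subunit of a heterodimeric triplet polymerase ribozyme.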

Variant | polymerase ribozyme fitness (log ratio)
GACCAAUCUGCCCUCAGAGCUCGAGAACAUCUUCGGAUGCAGAGGAGGGAGGCUUCGGUGGCGCGAUAUCGCCAACGUCCUCAACCUCCAAUGCAUCCCACCACAUGAUGAUGCCUGAAGAGCCUUGGUUUUUUG [C49G G69U] | -0.396
GACCAAUCUGCCCUCAGAGCUCGAGAACAUCUUCGGAUGCAGAGGAGGGAGGCUUCGGUGGCGCGAUAGCGCCAACAUCCUCAACCUCCAAUGCAUCCCACCACAUGAUGAGGCCUGAAGAGCCUUGGUUUUUUG [C49G G77A U112G] | -0.318
GACCAAUCUGCCCUCAGAGCUCGAGAACAUCUUCGGAUGCAGAGGAGGGAGGCUUCGGUGGCUCGAUAGCGCCAACGUCCUCAACCUCCAAUGCAUCCCACCACAUGAUGAUGCCUGAAGAGCCUUGGUGUUUUG [C49G G63U U130G] | -2.28
GACCAAUCUGCCCUCAGAGCUCGAGAACAUCUUCGGAUGCAGAGGAGGGAGGCUUCGGUGGCGCGAUAGCGCCAACGUCCUCAACCUCGAAUGCAUCCCACCACAUGAUGAUGCCUGAAGAGCCUUGGUUUUUUG [C49G C89G] | -2.16
GACCAAUCUGCCCUCAGAGCUCGAGAACAUCUUCGGAUGCAGAGGAGGGAGGCUUCGGUGGCGCGAUAGCGCCAACGUCCUCAACCUCCAAUGCAUCCCACCACAUGAUGAUGCGUGAAGAGCCUUGGUUUUUUU [C49G C115G G135U] | -3.4
GACCAAUCUGCCCUCAGAGCUCGAGAACAUCUUCGGAUGCAGAGGAGGGAGGCUUCGGUGGCGCGAUAGCGCCAACGUCCUCAACCUCCAAUACAUCCCACCACAUGAUGAUGCCUGAAGAGCCUUGGUUUUUUG [C49G G93A] | -1.26
GACCAAUCUGCCCUCAGAGCUCGAGAACAUCUUCGGAUGCAGAGGAGGGAGGCUUCGGUUGCGCGAUAGCGCCAACGUCCUCAACCUCCAAUGCAUCCCACCACAUGAUAAUGCCUGAAGAGCCUUGGUUUUUUG [C49G G60U G110A] | -1.76
GACCAAUCUGCCCUCAGAGCUCGAGAACAUCUUCGGAUGCAGAGGAGGGAGGCUUCGGUGGCGCGAUAGCGCCAACGUCCUCAAGCUCCAAUGCAUCCCACCACAUGAUGAUGCCUGAAGAGCCUUGGUUUUUUG [C49G C85G] | -2.67
GACCAAUCUGCCCUCAGAGCUCGAGAACAUCUUCGGAUGCAGAGGAGGGAGGCUUCUGUGGCACGAUAGCGCCAACGUCCUCAACCUCCAAUGCAUCCCACCACAUGAUGAUGCCUGAGGAGCCUUGGUUUUGUG [C49G G57U G63A A119G U133G] | -0.878
GACCAAUCUGCCCUCAGAGCUCGAGAACAUCUUCGGAUGCAGAGGAGGGAGGCUUCGGUGGCGCGAUAGCGCCAACGUCCUCAACCUCCAAUGCAUCCCACCACAUGAUGAUGCCUGAAGAGCCUUAGUUUUUUG [C49G G127A] | -1.65
GACCAAUCUGCCCUCAGAGCUCGAGAACAUCUUCGGAUGCAGAGGAGGGAGGCUUCGGUGGCGCGAUAACGCCAACGUCCUCAACCUCCAAUGCAUCCCACCACAUGAUGAUGCCUGAUGAGCCUUGGUUUUAUG [C49G G69A A119U U133A] | -3.06
GACCAAUCUGCCCUCAGAGCUCGAGAACAUCUUCGGAUGCAGAGGAGGUCGGCUUCGGUGGCGCGAUAGCGCCAACGUCCUCAACCUCCAAUGCAUCCCACCACAUGAUGAUGCCUGAAGAGCCUUGGUUUUUUG [C49U A50C] | -0.544
GACCAAUCUGCCCUCAGAGCUCGAGAACAUCUUCGGAUGCAGAGGAGGGAGGCUUCGGUGGCGCGAUACCGCCAACGCCCUCAACCUCCAAUGCAUCCCACCACAUGAUGAUGCCUGAAGAGCCUUGGUUUUUUG [C49G G69C U78C] | -2.8
GACCAAUCUGCCCUCAGAGCUCGAGAACAUCUUCGGAUGCAGAGGAGGGAGGCUUCGGGGGGGCGAUAGCGUCAACGUCCUCAACCUCCAAUGCAUCCCACCACAUGAUGAUGCCUGAAGAGCCUUGGUUUUUUG [C49G U59G C62G C72U] | -4.88
GACCAAUCUGCCCUCAGAGCUCGAGAACAUCUUCGGAUGCAGAGGAGGGAGGCUGCGGUGGCGCGAUAGCGCCAACGUCCUCAACCUCCAAUGCAUCCCACCACAUGAUGAUGCCUGAAGAGCCUUGGUUUUUUG [C49G U55G] | -1.16
GACCAAUCUGCCCUCAGAGCUCGAGAACAUCUUCGGAUGCAGAGGAGGGAGGCUUCGGGGGCGCGAUAGCGCCAACGUCCUCAACCUCCAAUGCAUCCCACCACAUGAUGAUGCCUGAAGAGCCUUGGUUUUUUG [C49G U59G] | -0.612
GACCAAUCUGCCCUCAGAGCUCGAGAACAUCUUCGGAUGCAGAGGAGGGAGGCUUCGGUGGCGCUAUAGCGCCAACGUCCUCAACCUCCAAUGCAUCCCACCACAUGAUGAUGCCUGAAGAGCCUUGGUUUUUUG [C49G G65U] | -4.97
GACCAAUCUGCCCUCAGAGCUCGAGAACAUCUUCGGAUGCAGAGGAGGGAGGCUUCGGUGGCGCGAUAGCGCCAACGUCCUCAACCUCCAAUGCAUCCCACCACAUGAUAAUGCCUGAAGAGCCUUGGUUUUUUG [C49G G110A] | -1.31
GACCAAUCUGCCCUCAGAGCUCGAGAACAUCUUCGGAUGCAGAGGAGGGAGGCUUCGGUGUCGCGAUAGCGCCAACGUCCUCAACCUACAAUGCAUCCCACCACAUGAUGAUGCCUGAAGAGCCUUGGUUUUUUG [C49G G61U C88A] | -1.08
GACCAAUCUGCCCUCAGAGCUCGAGAACAUCUUCGGAUGCAGAGGAGGGAGGCUUCGGUGGCGCGAUAGCGGCAACGUCCUCAACCUCCAAUGCAUCCCACCACAUGAUGAUGCCUGAACAGCCUUGGUUUUUUG [C49G C72G G120C] | -0.782
GACCAAUCUGCCCUCAGAGCUCGAGAACAUCUUCGGAUGCAGAGGAGGGAGGCUUCGGUGGCGCGAUAGCGCCAACGUCCUCAACCUCCAAUGCAUCCCACCACAUGAUGAUGCCUGAAGAGUCUUGGUUUUUUG [C49G C123U] | 0.717

Variant | polymerase ribozyme fitness (log ratio)
GACCAAUCUGCCCUCAGAGCUCGAGAACAUCUUCGGAUGCAGAGGAGGUAGGCUUCGGUGGCGCGCUAGCGCCAACGUCCUCAACGUUCAAAGCAUCCCACCACAUGAUGAUGUCUGAAGAGCCUUGGUUUUUUG [C49U A66C C86G C88U U92A C114U] | -5.32
GACCAAUCUGCCCUCAGAGCUCGAGAACAUCUUCGGAUGCAGAGGAGGGAGGCUUCGGUGGCGCGAUAGCGCCAACGUCCUCAACCUCCAAUGCAUCCCAACACAUGAUGAUGCCUGAAGAGCCUUGGUUUUUUG [C49G C101A] | -1.3
GACCAAUCUGCCCUCAGAGCUCGAGAACAUCUUCGGAUGCAGAGGAGGGAGGCUUCGCUGGCGCGAUAGCGCCAACGUCCUCAACCUCCAAUGCAUCCCACCACAUGAUGAUGCCUGAAGAGCCUUGGUUUUUUG [C49G G58C] | -3.36
GACCAAUCUGCCCUCAGAGCUCGAGAACAUCUUCGGAUGCAGAGGAGGUAGGCUUCGGUGGCGCGGUAGCGCAAACGUCCUCAACCUCCAAUGCAUCCCAACACAUGAUGAUGCCUGAAGAGCCUUGAUUUUUUG [C49U A66G C73A C101A G128A] | -4.92
GACCAAUCUGCCCUCAGAGCUCGAGAACAUCUUCGGAUGCAGAGGAGGGAGGCUGCGGUGGCGCGAUAGCGCCAACGUCCUCAACCUCCAAUGCAUCCCACCACAUGAUGAUGCCUGAAGAGCCUUGGAUUUUUG [C49G U55G U129A] | -1.82
GACCAAUCUGCCCUCAGAGCUCGAGAACAUCUUCGGAUGCAGAGGAGGGAGGCUUCGGUGACGCGAUAGCGCCAACGUCCUCAACCUCCAAUGCAUCCCACCACAUGAUGAUGCCUGAAGAGCCUUGGUUUUUUG [C49G G61A] | -0.914
GACCAAUCUGCCCUCAGAGCUCGAGAACAUCUUCGGAUGCAGAGGAGGGAGGCUUCGGUCGCGCGAUAGCGCCAACGUCCUCAACCUCCAAUGCAUCCCACCACAUGAUGAUGCCUGAUGAGCCUUGGUUUUAUG [C49G G60C A119U U133A] | -2.93
GACCAAUCUGCCCUCAGAGCUCGAGAACAUCUUCGGAUGCAGAGGAGGGAGGCUUCGGUGGCGCGAUAGCGCCAACGUCCUCAACCUCCAAUGCAUCCCACCACAUGAUGAUGCCUGAAGAGCGUUGGUUUUUUG [C49G C124G] | 1.58
GACCAAUCUGCCCUCAGAGCUCGAGAACAUCUUCGGAUGCAGAGGAGGGAGGCUUCGGUGGCGCGAUAGCGCCAAUGUCCUCAACCCCCAAUGCAUCCCACCACAUGAUGAUGCCUGAAGAGCCUUGGUUUUUUG [C49G C76U U87C] | -1.3
GACCAAUCUGCCCUCAGAGCUCGAGAACAUCUUCGGAUGCAGAGGAGGGAGGCUUCGGUGGCGCGAUAGCGCCAACGUCCUCAACCUCCAAUGCAUCCCACCACAUGAUGACACCUGAAGAGCCUUGGUUUUUUG [C49G U112C G113A] | -2.11
GACCAAUCUGCCCUCAGAGCUCGAGAACAUCUUCGGAUGCAGAGGAGGGAUGCGUCGGUGGCGCGAUAGCGCCAACGUCCUCAACCUCCAAUGCAUCCCACCACAUGAUGAUGCCUGAAGAGCCUUGGUUUUUUG [C49G G51U U54G] | -2.34
GACCAAUCUGCCCUCAGAGCUCGAGAACAUCUUCGGAUGCAGAGGAGGUGGGCUUCGGUGGCGCGAUAGCUCCAACGUCCUCAACCUCCAAUGCAUCCCACCACUUGAUGAUGCCUGAAGAGCCUUGGUUUUUUG [C49U A50G G71U A105U] | -4.83
GACCAAUCUGCCCUCAGAGCUCGAGAACAUCUUCGGAUGCAGAGGAGGGAGGCUUCGGUGGCGCGAUAGCGCCAACGUUCUCAACCUCCAAUGCAGCCCACCACAUGAUGAUGCCUGAAGAGCCUUGGUUUUUUG [C49G C79U U96G] | -0.996
GACCAAUCUGCCCUCAGAGCUCGAGAACAUCUUCGGAUGCAGAGGAGGGAGGCUUCGGUGGCGCGAUAGCGCCAACGUCCUCAACCUCCAAUGCAUCCCACCACAUGAUGAUGCCUGAAUAGCAUUGGUUUUUUU [C49G G120U C124A G135U] | -1.63
GACCAAUCUGCCCUCAGAGCUCGAGAACAUCUUCGGAUGCAGAGGAGGGAGGCUUCGGUGGCGCGAUAGCGCCAACGUCCUCAACCUCCAAUACAUCCCACCACAUGAUGAUGCCUGAAGAGCCUUGGUUUUAUG [C49G G93A U133A] | -0.83
GACCAAUCUGCCCUCAGAGCUCGAGAACAUCUUCGGAUGCAGAGGAGGGAGACUUCGGUGGCGCGAUAGCGCCAACGUCCUGAGCCUCCAAUGCAUCCCACCACAUGAUGAUGCCUGAAGUGCCUUGGUUUUUUG [C49G G52A C82G A84G A121U] | 0.784
GACCAAUCUGCCCUCAGAGCUCGAGAACAUCUUCGGAUGCAGAGGAGGUGAGCGUCGGUGACGCGAUAGCGCCAACGUCCUCAACCUCCAAUGCAUCCCACCACAUGAUGACGCCUGAAGAGCCUUGGUUUUUUG [C49U A50G G51A U54G G61A U112C] | -0.096
GACCAAUCUGCCCUCAGAGCUCGAGAACAUCUUCGGAUGCAGAGGAGGGAGGCUUCAGUGGCGCGAUAGCGCCAACGUCCUCAACCUCCAAUGCAUCCCACCACAUGAAGAUGCCUGAAGAGCCUUGGUUUUUUG [C49G G57A U109A] | -6.29
GACCAAUCUGCCCUCAGAGCUCGAGAACAUCUUCGGAUGCAGAGGAGGGAGGCUCCGGUGGCGCGAUAGCGCCAAUGUCCUCAACCUCCAAUGCCUCUCACCACAUGAUGAUGCCUGAAGAGCCUUGGUUUUUUG [C49G U55C C76U A95C C98U] | -2.41
GACCAAUCUGCCCUCAGAGCUCGAGAACAUCUUCGGAUGCAGAGGAGGGAGGCUUCGGUGGCGCGAUAUCGCCAACGUCCUCAACCUCCAAUGCAUCCCACCACAUGAUGAUGCCUGAAGAGCCAUGAUUUUUUG [C49G G69U U125A G128A] | -3.1
GACCAAUCUGCCCUCAGAGCUCGAGAACAUCUUCGGAUGCAGAGGAGGUAGGCUUCGGUGGCGCGAUAGCGCCAACGUCCUCAACCUCCAAUGCGUCCCACCACAUGAUGAUGCCUGAAGAGCCUUGGUUUUUUG [C49U A95G] | -1.14
